We go through two molecules from patent publication US20190169308A1.

For the assay, the target named is human/mouse 5T4 chimera aa173-420 (human; mouse) (UniProt Q13641). Description: flow cytometry, cells with human/mouse 5T4 chimera. In general terms: A flow cytometer gives signals particle by particle.
human/mouse 5T4 chimera aa173-420 (human; mouse), sequence (Q13641 other isoform, or with tags, fused parts or gaps mutant limits assumed, form in doubt): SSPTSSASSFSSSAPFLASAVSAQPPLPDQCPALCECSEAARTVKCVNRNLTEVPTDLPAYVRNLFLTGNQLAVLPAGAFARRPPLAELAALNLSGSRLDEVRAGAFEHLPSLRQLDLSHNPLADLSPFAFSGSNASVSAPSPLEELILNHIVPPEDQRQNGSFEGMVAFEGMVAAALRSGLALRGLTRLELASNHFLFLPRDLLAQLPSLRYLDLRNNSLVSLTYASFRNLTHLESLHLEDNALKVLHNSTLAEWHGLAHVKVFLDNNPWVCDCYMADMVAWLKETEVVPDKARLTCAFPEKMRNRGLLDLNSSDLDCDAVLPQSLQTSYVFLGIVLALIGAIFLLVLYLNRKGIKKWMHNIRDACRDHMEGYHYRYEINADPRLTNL

B1: 1206/1207 (antibody, V domains shown)
VH: EVQLLESGGGLVQPGGSLRLSCAASGFTFSGSSMSWVRQAPGKGLEWVSSIYYSGSGTYYADSVKGRFTISRDNSKNTLYLQMNSLRAEDTAVYYCARYGRNVHPYNLDYWGQGTLVTVSS
VL: DIQMTQSPSSLSASVGDRVTITCRASQSISSYLNWYQQKPGKAPKLLIYAASSLQSGVPSRFSGSGSGTDFTLTISSLQPEDFATYYCQQGYYYLPTFGQGTKLEIK
In turn, B1 displayed a normalized % positive cells of 0.3.

B2: 1212/1213 (antibody, V domains shown)
VH: EVQLLESGGGLVQPGGSLRLSCAASGFTFSSYAMSWVRQAPGKGLEWVSYISSYGGYTSYADSVKGRFTISRDNSKNTLYLQMNSLRAEDTAVYYCARYHSGVLDYWGQGTLVTVSS
VL: DIQMTQSPSSLSASVGDRVTITCRASQSISSYLNWYQQKPGKAPKLLIYAASSLQSGVPSRFSGSGSGTDFTLTISSLQPEDFATYYCQQYYYHYLLTFGQGTKLEIK
For B2, the normalized % positive cells was -0.01.
